Measured values reported in patent US20240293512A1 (HANMI PHARM, published 2024).
Bridge positions count the residues as written; N and C are the ends. Square brackets hold non-standard residues; d marks the D form. Ends that are not written are not given here. * marks the point of attachment. Acetyl(2-(4-imidazolyl)) = O=C(Cc1c[nH]cn1)*; Aib = CC(C)(N)C(=O)O

T1: human GIP receptor (human, UniProt P48546 22-466)
T1 sequence (looked up): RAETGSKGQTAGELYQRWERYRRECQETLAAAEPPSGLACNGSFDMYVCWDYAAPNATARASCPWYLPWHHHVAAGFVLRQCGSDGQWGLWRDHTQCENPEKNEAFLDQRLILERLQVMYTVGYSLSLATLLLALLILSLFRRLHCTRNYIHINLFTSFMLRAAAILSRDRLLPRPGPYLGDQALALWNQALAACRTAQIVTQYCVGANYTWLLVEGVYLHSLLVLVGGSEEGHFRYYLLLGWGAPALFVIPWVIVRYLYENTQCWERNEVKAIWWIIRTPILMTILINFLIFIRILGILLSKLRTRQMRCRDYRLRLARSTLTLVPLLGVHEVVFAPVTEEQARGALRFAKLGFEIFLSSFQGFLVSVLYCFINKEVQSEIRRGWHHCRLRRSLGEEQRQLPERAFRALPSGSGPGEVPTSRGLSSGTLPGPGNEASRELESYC


Key:
Assay in all cases: cell-based or functional assay
human GLP-1 receptor = human GLP-1 receptor (human, UniProt P43220 24-463)
human GCG receptor = human GCG receptor (human, UniProt P47871 26-477)
human GIP receptor = biological target: T1, human GIP receptor

human GCG receptor, sequence (P47871 26-477): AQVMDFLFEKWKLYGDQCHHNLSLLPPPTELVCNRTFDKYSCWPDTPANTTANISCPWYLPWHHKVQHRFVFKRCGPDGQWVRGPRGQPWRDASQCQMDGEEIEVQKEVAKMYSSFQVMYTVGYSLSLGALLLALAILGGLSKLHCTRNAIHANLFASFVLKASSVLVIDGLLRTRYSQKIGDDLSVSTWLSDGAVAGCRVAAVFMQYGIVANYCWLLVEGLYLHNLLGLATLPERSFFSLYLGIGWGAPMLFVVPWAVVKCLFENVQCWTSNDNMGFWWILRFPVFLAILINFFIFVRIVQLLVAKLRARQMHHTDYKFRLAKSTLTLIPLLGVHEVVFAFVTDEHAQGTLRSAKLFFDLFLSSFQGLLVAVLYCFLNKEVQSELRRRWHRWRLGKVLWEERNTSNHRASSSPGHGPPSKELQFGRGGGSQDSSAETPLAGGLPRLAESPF

| Binder | In vitro activity compared with native peptide (%) vs GLP-1 (cAMP EC50) (human GLP-1 receptor) [%] | In vitro activity compared with native peptide (%) vs Glucagon (cAMP EC50) (human GCG receptor) [%] | In vitro activity compared with native peptide (%) vs GIP (cAMP EC50) (human GIP receptor) [%] |
| --- | --- | --- | --- |
| H[Aib]QGTFTSDYSKYLDEKRAQEFVCWLLAQKGKKNDWKHNIT [triple agonist of SEQ ID NO: 28] | 17.2 | 1.6 | < 0.1 |
| H[Aib]QGTFTSDYSKYLDEKACKEFVQWLLAQ (bridge 16-20) [triple agonist of SEQ ID NO: 31] | 135 | 2.2 | 2.4 |
| [Acetyl(2-(4-imidazolyl))]GQGTFTSDLSIQYDSEHQRDFIEWLKDTGPSSGAPPPSHG [triple agonist of SEQ ID NO: 19] | < 0.1 | < 0.1 | < 0.1 |
| Y[Aib]QGTFTSDYSKYLDECRAKEFVQWLLDHHPSSGQPPPS (bridge 16-20) [triple agonist of SEQ ID NO: 21] | 17.8 | 267 | 22.7 |
| Y[Aib]QGTFTSDYSKYLDECRAKEFVQWLLAQKGKKNDWKHNIT (bridge 16-20) [triple agonist of SEQ ID NO: 23] | 4.01 | 9.3 | < 0.1 |
| [Acetyl(2-(4-imidazolyl))]GQGTFTSDLSKQMDEERAREFIEWLLAQKPSSGAPPPSHG [triple agonist of SEQ ID NO: 17] | 0.2 | < 0.1 | < 0.1 |
| H[Aib]QGTFTSDCSKYLDSRAAQDFVQWLLDGGPSSGAPPPS [triple agonist of SEQ ID NO: 26] | 64.5 | 0.2 | < 0.1 |
| [Acetyl(2-(4-imidazolyl))]GQGTFTSDLSIQYEEEAQQDFVEWLKDTGPSSGAPPPSHG [triple agonist of SEQ ID NO: 20] | < 0.1 | < 0.1 | < 0.1 |
| H[Aib]QGTFTSDYSIAMDEIHQKDFVNWLLAQKC (bridge 16-20) [triple agonist of SEQ ID NO: 33] | 24.5 | < 0.1 | 10.4 |
| H[Aib]QGTFTSDYSKYLDEKACKDFVQWLLDGGPSSGAPPPS (bridge 16-20) [triple agonist of SEQ ID NO: 32] | 151 | 1.7 | 8.8 |
| H[Aib]QGTFTSDVSSYLLGQAAKQFIAWLVKGGGPSSGAPPPSC [triple agonist of SEQ ID NO: 3] | 1.8 | < 0.1 | < 0.1 |
| H[Aib]QGTFTSDYSKYLDEKAQKEFVQWLLDTC (bridge 16-20) [triple agonist of SEQ ID NO: 30] | 142 | 0.7 | 0.8 |
| Y[Aib]QGTFTSDYSKYLDECRAKEFVQWLKNGGPSSGAPPPS (bridge 16-20) [triple agonist of SEQ ID NO: 24] | 41.2 | 9.3 | < 0.1 |
| H[Aib]QGTFTSDCSKYLDERAAQDFVQWLLDGGPSSGAPPPS [triple agonist of SEQ ID NO: 25] | 82.6 | 0.1 | < 0.1 |
| Y[Aib]QGTFTSDYSKCLDEKRAKEFVQWLLDHHPSSGQPPPS (bridge 16-20) [triple agonist of SEQ ID NO: 22] | 20.1 | 140 | 59.7 |
| H[Aib]QGTFTSDYSKYLDERACQDFVQWLLDQGGPSSGAPPPS [triple agonist of SEQ ID NO: 27] | 83.1 | 0.8 | 0.9 |
| H[Aib]QGTFTSDYSKYLDEKAAKEFVQWLLNTC (bridge 16-20) [triple agonist of SEQ ID NO: 29] | 38.5 | 6 | < 0.1 |
| [Acetyl(2-(4-imidazolyl))]GQGTFTSDLSKQMDSERAREFIEWLKNTGPSSGAPPPSHG [triple agonist of SEQ ID NO: 18] | < 0.1 | < 0.1 | < 0.1 |
